# According to article PMC2765501:
# Molecular target: C22-pT peptide (HIV-1 gp41 MPER residues 662-683 with a C-terminal GCN4-pT isoleucine-zipper motif) (HIV-1)
# Assay: AUC
substance,measurement,value
C22-pT peptide (HIV-1 gp41 MPER residues 662-683 with a C-terminal GCN4-pT isoleucine-zipper motif),stoichiometry N,3
